{"source": "patent US20240301043A1", "about": "(Q32 BIO, published 2024)", "binders": {"B1": {"name": "Exemplary anti-C3d construct 55 (antibody, mouse IgG1, kappa, V domains shown)", "VH": "EVQLQQSGPVLVKPGASVKMSCKASGYTFTAYYMNWVRQSHGKSLEWIGVINPYNGGTSYNQKFKGKATLTVDKSSSTAYMELNSLTSEDSAVYYCSSPYWGQGTSVTVSS", "VL": "not shown", "notes": "also called Exemplary construct 55"}, "B2": {"name": "Exemplary anti-C3d construct 56 (Fab) (Fab, V domains shown)", "VH": "EVQLQQSGPVLVKPGASVKMSCKASGYTFTAYYMNWVRQSHGKSLEWIGVINPYNGGTSYNQKFKGKATLTVDKSSSTAYMELNSLTSEDSAVYYCSSPYWGQGTSVTVSS", "VL": "not shown", "notes": "also called Exemplary construct 56"}, "B3": {"name": "Exemplary anti-C3d construct 34 (antibody, mouse IgG1, kappa, V domains shown)", "VH": "EVQLQQSGPVLVKPGASVKMSCKASGYTFTAYYMNWVRQSHGKSLEWIGVINPYNGGTSYNQKFKGKATLTVDKSSSTAYMELNSLTSEDSAVYYCSSPYWGQGTSVTVSS", "VL": "not shown", "notes": "muHC2 murine IgG1 heavy chain and muLC2 murine kappa light chain; also called Exemplary construct 34"}, "B4": {"name": "Exemplary anti-C3d construct 74 (antibody, V domains shown)", "VH": "QVQLVQSGAEVKKPGASVKVSCKASGYTFTNYYINWVRQAPGQGLEWIGVINPYNGGTSYNQKFKGRATLTVDTSTSTAYMELSSLRSEDTAVYFCSSPYWGQGTLVTVSS", "VL": "DVVMTQSPLSLPVTLGQPASISCKSSQSLLDSDGKTYLNWFQQRPGQSPRRLIYLVSKLDSGVPDRFSGSGSGTDFTLKISRVEAEDVGVYYCWQGTHFPRTFGGGTKVEIK", "notes": "Humanized 3d8b VH4 / VK3; also called Exemplary construct 74"}, "B5": {"name": "Exemplary anti-C3d construct 93 (antibody, human IgG4 S228P, kappa, V domains shown)", "VH": "QVQLVQSGAEVKKPGASVKVSCKASGYTFTNYYINWVRQAPGQGLEWMGVINPYSGGTSYNQKFKGRVTMTVDTSTSTAYMELSSLRSEDTAVYFCSSPYWGQGTLVTVSS", "VL": "DVVMTQSPLSLPVTLGQPASISCKSSQSLLDSDGKTYLNWFQQRPGQSPRRLIYLVSKLDSGVPDRFSGSGSGTDFTLKISRVEAEDVGVYYCWQGTHFPRTFGGGTKVEIKR", "notes": "also called Exemplary construct 93"}, "B6": {"name": "Exemplary anti-C3d construct 79 (antibody, V domains shown)", "VH": "QVQLVQSGAEVKKPGASVKVSCKASGYTFTNYYINWVRQAPGQGLEWMGVINPYSGGTSYNQKFKGRVTMTVDTSTSTAYMELSSLRSEDTAVYFCSSPYWGQGTLVTVSS", "VL": "DVVMTQSPLSLPVTLGQPASISCKSSQSLLDSDGKTYLNWFQQRPGQSPRRLIYLVSKLDSGVPDRFSGSGSGTDFTLKISRVEAEDVGVYYCWQGTHFPRTFGGGTKVEIK", "notes": "Humanized 3d8b VH5 N54S / VK3; also called Exemplary construct 79"}, "B7": {"name": "Exemplary anti-C3d construct 86 (antibody, human IgG4 S228P, kappa)", "heavy": "not shown", "light": "DVVMTQSPLSLPVTLGQPASISCKSSQSLLDSDGKTYLNWFQQRPGQSPRRLIYLVSKLDSGVPDRFSGSGSGTDFTLKISRVEAEDVGVYYCWQGTHFPRTFGGGTKVEIKRTVAAPSVFIFPPSDEQLKSGTASVVCLLNNFYPREAKVQWKVDNALQSGNSQESVTEQDSKDSTYSLSSTLTLSKADYEKHKVYACEVTHQGLSSPVTKSFNRGEC", "notes": "HC1 (VH5) humanized IgG4 S228P/L235E; LC1 (Vk3) humanized kappa; also called Exemplary construct 86"}, "B8": {"name": "Exemplary anti-C3d construct 77 (antibody, V domains shown)", "VH": "QVQLVQSGAEVKKPGASVKVSCKASGYTFTNYYINWVRQAPGQGLEWMGVINPYHGGTSYNQKFKGRVTMTVDTSTSTAYMELSSLRSEDTAVYFCSSPYWGQGTLVTVSS", "VL": "DVVMTQSPLSLPVTLGQPASISCKSSQSLLDSDGKTYLNWFQQRPGQSPRRLIYLVSKLDSGVPDRFSGSGSGTDFTLKISRVEAEDVGVYYCWQGTHFPRTFGGGTKVEIK", "notes": "Humanized 3d8b VH5 N54H / VK3; also called Exemplary construct 77"}, "B9": {"name": "Exemplary anti-C3d construct 76 (antibody, V domains shown)", "VH": "QVQLVQSGAEVKKPGASVKVSCKASGYTFTNYYINWVRQAPGQGLEWIGVINPYHGGTSYNQKFKGRATLTVDTSTSTAYMELSSLRSEDTAVYFCSSPYWGQGTLVTVSS", "VL": "DVVMTQSPLSLPVTLGQPASISCKSSQSLLDSDGKTYLNWFQQRPGQSPRRLIYLVSKLDSGVPDRFSGSGSGTDFTLKISRVEAEDVGVYYCWQGTHFPRTFGGGTKVEIK", "notes": "Humanized 3d8b VH4 N54H / VK3; also called Exemplary construct 76"}, "B10": {"name": "Exemplary anti-C3d construct 78 (antibody, V domains shown)", "VH": "QVQLVQSGAEVKKPGASVKVSCKASGYTFTNYYINWVRQAPGQGLEWIGVINPYSGGTSYNQKFKGRATLTVDTSTSTAYMELSSLRSEDTAVYFCSSPYWGQGTLVTVSS", "VL": "DVVMTQSPLSLPVTLGQPASISCKSSQSLLDSDGKTYLNWFQQRPGQSPRRLIYLVSKLDSGVPDRFSGSGSGTDFTLKISRVEAEDVGVYYCWQGTHFPRTFGGGTKVEIK", "notes": "Humanized 3d8b VH4 N54S / VK3; also called Exemplary construct 78"}, "B11": {"name": "Exemplary anti-C3d construct 87 (antibody, human IgG4 S228P, kappa)", "heavy": "not shown", "light": "DVVMTQSPLSLPVTLGQPASISCKSSQSLLDSDGKTYLNWFQQRPGQSPRRLIYLVSKLDSGVPDRFSGSGSGTDFTLKISRVEAEDVGVYYCWQGTHFPRTFGGGTKVEIKRTVAAPSVFIFPPSDEQLKSGTASVVCLLNNFYPREAKVQWKVDNALQSGNSQESVTEQDSKDSTYSLSSTLTLSKADYEKHKVYACEVTHQGLSSPVTKSFNRGEC", "notes": "also called Exemplary construct 87"}, "B12": {"name": "Exemplary anti-C3d construct 75 (antibody, V domains shown)", "VH": "QVQLVQSGAEVKKPGASVKVSCKASGYTFTNYYINWVRQAPGQGLEWMGVINPYNGGTSYNQKFKGRVTMTVDTSTSTAYMELSSLRSEDTAVYFCSSPYWGQGTLVTVSS", "VL": "DVVMTQSPLSLPVTLGQPASISCKSSQSLLDSDGKTYLNWFQQRPGQSPRRLIYLVSKLDSGVPDRFSGSGSGTDFTLKISRVEAEDVGVYYCWQGTHFPRTFGGGTKVEIK", "notes": "Humanized 3d8b VH5 / VK3; also called Exemplary construct 75"}, "B13": {"name": "Exemplary Fusion Construct 99 (other)", "heavy": "not shown", "light": "DVVMTQSPLSLPVTLGQPASISCKSSQSLLDSDGKTYLNWFQQRPGQSPRRLIYLVSKLDSGVPDRFSGSGSGTDFTLKISRVEAEDVGVYYCWQGTHFPRTFGGGTKVEIKRTVAAPSVFIFPPSDEQLKSGTASVVCLLNNFYPREAKVQWKVDNALQSGNSQESVTEQDSKDSTYSLSSTLTLSKADYEKHKVYACEVTHQGLSSPVTKSFNRGEC", "notes": "Order chain, linker, modulator follows claim 321"}}, "key": {"[1]": {"target": "T1, human C3d (human, UniProt P01024 1002-1303)", "T1 construct": "domain: C3d; also called C3d antigen", "T1 sequence (P01024 1002-1303 limits assumed)": "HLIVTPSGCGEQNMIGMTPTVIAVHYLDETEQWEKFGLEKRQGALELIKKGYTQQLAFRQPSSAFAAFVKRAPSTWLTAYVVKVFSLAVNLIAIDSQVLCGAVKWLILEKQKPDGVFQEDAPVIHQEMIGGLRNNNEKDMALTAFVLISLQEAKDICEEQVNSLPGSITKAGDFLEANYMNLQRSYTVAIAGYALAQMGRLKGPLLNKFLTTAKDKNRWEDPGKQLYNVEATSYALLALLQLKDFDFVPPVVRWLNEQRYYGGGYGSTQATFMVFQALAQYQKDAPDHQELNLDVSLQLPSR", "test": "ELISA, human C3d coated on plate"}, "[2]": {"target": "T1, human C3d", "test": "SPR (Biacore 3000), human C3d amine-coupled to CM5 chip, construct as analyte"}, "[3]": {"target": "T1, human C3d", "test": "ELISA, human C3d coated on plate", "remark": "listed apart in the source"}, "[4]": {"target": "T1, human C3d", "test": "ELISA, human C3d coated on plate", "remark": "listed apart in the source"}}, "note": "Like-named read-outs stand apart in the source and are kept apart here."}
{"binder": "B1", "values": [{"measurement": "EC50", "setting": "[1]", "value": 0.24, "unit": "nM"}]}
{"binder": "B2", "values": [{"measurement": "EC50", "setting": "[1]", "value": 0.55, "unit": "nM"}, {"measurement": "Kd", "setting": "[2]", "value": 0.91, "unit": "nM"}]}
{"binder": "B3", "values": [{"measurement": "EC50", "setting": "[1]", "value": 0.32, "unit": "nM"}, {"measurement": "Kd", "setting": "[2]", "value": 0.888, "unit": "nM"}]}
{"binder": "B4", "values": [{"measurement": "EC50", "setting": "[3]", "value": 0.017, "unit": "nM"}, {"measurement": "Kd", "setting": "[2]", "value": 1.34, "unit": "nM"}]}
{"binder": "B5", "values": [{"measurement": "EC50", "setting": "[4]", "value": 0.02, "unit": "nM"}, {"measurement": "Kd", "setting": "[2]", "value": 10.2, "unit": "nM"}]}
{"binder": "B6", "values": [{"measurement": "EC50", "setting": "[3]", "value": 0.02, "unit": "nM"}]}
{"binder": "B7", "values": [{"measurement": "EC50", "setting": "[3]", "value": 0.03, "unit": "nM"}, {"measurement": "EC50", "setting": "[4]", "value": 0.03, "unit": "nM"}, {"measurement": "Kd", "setting": "[2]", "value": 14.7, "unit": "nM"}]}
{"binder": "B8", "values": [{"measurement": "EC50", "setting": "[3]", "value": 0.011, "unit": "nM"}]}
{"binder": "B9", "values": [{"measurement": "EC50", "setting": "[3]", "value": 0.018, "unit": "nM"}]}
{"binder": "B10", "values": [{"measurement": "EC50", "setting": "[3]", "value": 0.018, "unit": "nM"}]}
{"binder": "B11", "values": [{"measurement": "EC50", "setting": "[4]", "value": 0.02, "unit": "nM"}, {"measurement": "Kd", "setting": "[2]", "value": 7.57, "unit": "nM"}]}
{"binder": "B12", "values": [{"measurement": "EC50", "setting": "[3]", "value": 0.029, "unit": "nM"}, {"measurement": "Kd", "setting": "[2]", "value": 1.63, "unit": "nM"}]}
{"binder": "B13", "values": [{"measurement": "EC50", "setting": "[4]", "value": 1.54, "unit": "nM"}]}
